Source: patent US20260258121A1, “USES OF POMC-SPECIFIC ANTIBODY AND MARCHF6” (KOREA UNIVERSITY RESEARCH AND BUSINESS FOUNDATION, priority 2023, published 2026)

T1: POMC (Homo sapiens, UniProt P01189)
T1 construct: expressed in transfected cells; host or cells: HEK293T
T1 sequence (P01189 1-267): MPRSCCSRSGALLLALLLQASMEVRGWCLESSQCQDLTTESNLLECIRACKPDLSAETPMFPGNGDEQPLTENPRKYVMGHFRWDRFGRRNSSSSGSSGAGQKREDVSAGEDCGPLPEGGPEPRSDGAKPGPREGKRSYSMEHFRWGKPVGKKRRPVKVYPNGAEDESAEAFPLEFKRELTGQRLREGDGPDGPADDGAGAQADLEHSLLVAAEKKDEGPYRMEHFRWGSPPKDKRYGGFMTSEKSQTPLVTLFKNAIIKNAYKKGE

T2: GST-POMC fragments (Homo sapiens, UniProt P01189)
T2 construct: purified GST, GST-POMC^1-76, GST-POMC^27-76, or GST-POMC^1-26 was incubated with 50 μl of glutathione Sepharose beads; made in house; Marchf63f came from an extract of transfected HEK293T cells
T2 sequence (P01189 27-76): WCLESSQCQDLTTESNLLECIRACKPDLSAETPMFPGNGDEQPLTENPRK

T3: GST-POMC fragments (Homo sapiens, UniProt P01189)
T3 construct: purified GST, GST-POMC^1-76, GST-POMC^27-76, or GST-POMC^1-26 was incubated with 50 μl of glutathione Sepharose beads; made in house; Marchf63f came from an extract of transfected HEK293T cells
T3 sequence (P01189 1-26): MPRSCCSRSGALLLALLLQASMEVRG

T4: GST-POMC fragments (Homo sapiens, UniProt P01189)
T4 construct: purified GST, GST-POMC^1-76, GST-POMC^27-76, or GST-POMC^1-26 was incubated with 50 μl of glutathione Sepharose beads; made in house; Marchf63f came from an extract of transfected HEK293T cells
T4 sequence (P01189 1-76): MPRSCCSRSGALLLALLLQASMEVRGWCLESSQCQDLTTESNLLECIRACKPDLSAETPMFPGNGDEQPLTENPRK


Experiments:
[1] = system: POMCha-overexpressing Marchf6-KO N43/5 cells; test: Cell viability (CellTiter-Glo) of POMCha-overexpressing Marchf6-KO N43/5 cells; type: cell-based, mouse
Description: To understand the functional or mechanistic association between Marchf6-mediated POMC degradation and ferroptosis, lipid ROS levels were compared in N43/5 cells overexpressing POMCha using a lipid peroxidation sensor C11-BODIPY^581/591. Specifically, WT or Marchf6-KO N43/5 cells were transfected with pCH4129 (POMCha) for 48 hours, and the medium was replaced with a culture medium containing 2 μM C11-BODIPY^581/591 (Thermo Fisher Scientific, D3861). The cells were incubated at 37° C. for 30 minutes, and the fluorescent probe-treated cells were trypsinized, transferred to a 15 ml Falcon tube, washed three times with 1 ml of ice-cold PBS, and then transferred to an ice-cold round-bottom polystyrene tube (Corning, 352235). The amount of intracellular lipid ROS in […] was measured using CytoFLEX LX (Beckman Coulter) using fluorescein isothiocyanate (FITC) and analyzed using FlowJo v10.8.1 (BD Bioscience). In addition, cell viability was analyzed using a CellTiter-Glo luminescent 3D cell viability assay kit (Promega, G9241) and a multimode plate reader (TECAN, Spark 10 M). At this time, when the inhibition of cell death was evaluated, WT or Marchf6-KO N43/5 cells expressing pCH60 (empty vector) or pCH4129 (POMCha) (final concentration of […] each) were treated with 5 μM Fer-1, 20 μM Z-VAD-FMK or 40 μM Nec-1, and incubated for 24 hours, and cell viability was analyzed. In addition, the intracellular NADP(H) level was measured using a NADP/NADPH-Glo assay kit (Promega, G9081) and a multimode plate reader (TECAN, Spark 10 M). Further, LDH activity was measured using the Cytotoxicity Detection Kit Plus (LDH) (Sigma, 4744926001).
Through Examples, since Marchf6 mediated the degradation of POMC, it was expected that loss of Marchf6 would make POMC neurons hypersensitive to POMC-induced ferroptosis. Therefore, pCH60 (empty vector), pCH879 (Marchf63f), pCH880 (Marchf6flag^C9A), or pCH4170 (Marchf6flag^P460A) was transfected into WT or Marchf6-KO N43/5 cells, and the degree of ferroptosis induction in POMC neurons was analyzed as in Example 6-1.

[2] = system: 4-hydroxynonenal (4HNE); test: Immunoblotting of 4-HNE in POMCha-overexpressing N43/5 cells; type: cell-based, mouse; settings: Fer-1 5 μM, 24 h
[3] = system: Gpx4, CHOP, Nox2, and Nox4; test: Immunoblotting of Gpx4, CHOP, Nox2 and Nox4 in POMCha-overexpressing Marchf6-KO N43/5 cells; type: cell-based, mouse
[4] = biological target: T1, POMC; test: Chemical crosslinking-based reciprocal co-immunoprecipitation assay in HEK293T cells; type: binding; settings: DSP crosslinking
Description: For the chemical crosslinking-based reciprocal co-immunoprecipitation assay, HEK293T cells were incubated at […] in a 10-cm dish plate and co-transfected with […] of pCH60 (empty vector) or pCH4129 (exogenous C-terminally hemagglutinin (ha)-tagged POMC: POMCha) and pCH879 (wild-type C-terminal triple flag-tagged Marchf6: Marchf63f) or pCH4170 (Marchf6^P460A) and incubated for 48 hours. The cells were washed with PBS, treated with 1 mM DSP [dithiobis(succinimidyl propionate)] (Thermo Fisher, 22585), and then the crosslinked cells were lysed and immunoprecipitated. The beads were washed three times with an IP-wash buffer (20 mM Tris-HCl, 137 mM NaCl, 0.1% NP-40, 2 mM EDTA, 10% glycerol) and bound proteins were eluted with a 2× SDS sample buffer. For immunoprecipitation with FLAG-agarose (Sigma-Aldrich, A2220), a 3× FLAG peptide (Protein Ark, GEN-3XFLAG-5) was used. Thereafter, the eluate was denatured and heated at 37° C. for 20 minutes, and SDS-PAGE and immunoblotting were performed using the corresponding antibody.

[5] = biological target: T2, GST-POMC fragments; test: GST pull-down assay; type: binding; settings: extract of HEK293T cells expressing Marchf63f
Description: (§1) To clarify a POMC domain binding to the C4 domain of Marchf6, a Y2H assay was performed using a set of POMC fragments in which the C4 of Marchf6 and the C-terminus (Ct-) of POMC were cleaved. To this end, pCH4540 (C4), pCH4132 (POMC), or cleaved forms thereof pCH4235 (POMC^1-76), pCH4236 (POMC^1-87), pCH4237 (POMC^1-102), pCH4238 (POMC^1-137), and pCH4239 (POMC^1-176) were co-transformed into CHY726 and spotted on a SC(-Leu/-Trp) or SC(-Leu/-Trp/-His) plate and analyzed as in Example above. In addition, for interaction analysis between full-length Marchf6 and POMC, a split-Ub assay was performed by transforming S. cerevisiae CHY712 with pCH836 (Marchf6) or pCH4311 (Marchf6^P460A) as bait and pCH4203 (POMC^1-267), pCH4204 (POMC^77-267), or pCH4313 (POMC^1-76) as prey. In addition, for glutathione-S-transferase (GST) pull-down assay, […] of purified GST, GST-POMC^1-76, GST-POMC^27-76, or GST-POMC^1-26 was incubated with 50 μl of glutathione Sepharose beads (Cytiva, 17-0756-05) at 4° C. for 2 hours.
(§2) HEK293T cells transfected with pCH879 (Marchf63f) were lysed with a lysis buffer (50 mM Tris-HCl, 150 mM NaCl, 1 mM EDTA, 1% NP-40, pH 7.6) containing 1× protease inhibitor cocktail to obtain an extract, and the extract and the beads were further incubated at 4° C. for 2 hours, and then washed three times with 0.5 ml of GST-wash buffer (20 mM Tris-HCl, 137 mM NaCl, 2 mM EDTA, 0.5% NP-40, 10% glycerol, pH 7.6). Proteins binding to the beads were eluted with a 2× SDS-sample buffer, heated at 37° C. for 20 minutes, subjected to SDS-PAGE, Coomassie blue staining, and immunoblotting using anti-flag antibody.

[6] = biological target: T3, GST-POMC fragments; test: GST pull-down assay; type: binding; settings: extract of HEK293T cells expressing Marchf63f; remark: listed apart in the source
Description: as §1, §2

[7] = biological target: T4, GST-POMC fragments; test: GST pull-down assay; type: binding; settings: extract of HEK293T cells expressing Marchf63f; remark: listed apart in the source
Description: as §1, §2

Molecule	decreased viability of POMCha-overexpressing Marchf6-KO N43/5 cells, effect of treatment ([1]; 5 μM Fer-1, 24 hours)	level of 4-hydroxynonenal (4HNE) increased by overexpression of POMCha, effect of treatment [2]	expression levels of Gpx4, CHOP, Nox2, and Nox4 proteins, effect of expression of construct [3]	reduced viability of POMCha-overexpressing Marchf6-deficient N43/5 cells, effect of ectopic expression ([1]; ectopic expression by transfection)	binding of full-length POMC (co-immunoprecipitation) [4]	binding to GST-POMC^27-76 [5]	binding to GST-POMC^1-26 [6]	binding to GST-POMC^1-76 [7]
CCOC(=O)c1ccc(NC2CCCCC2)c(N)c1 [Fer-1, ferrostatin-1, reference compound]	restored	restored						
Marchf63f: wild-type C-terminal triple flag-tagged Marchf6 (membrane associated ring-CH-type finger 6), expressed from pCH879 (protein, UniProt Q6ZQ89 1-909, looked up, C-terminal triple FLAG tag, wild-type C-terminal triple flag-tagged Marchf6 (membrane associated ring-CH-type finger 6), expressed from pCH879) E3 ubiquitin-protein ligase …: MDTAEEDICRVCRSEGTPEKPLYHPCVCTGSIKFIHQECLVQWLKHSRKEYCELCKHRFAFTPIYSPDMPSRLPIQDIFAGLVTSIGTAIRYWFHYTLVAFAWLGVVPLTACRIYKCLFTGSVSSLLTLPLDMLSTENLLADCLQGCFVVTCTLCAFISLVWLREQIVHGGAPIWLEHAAPPFNAAGHHQNEAPVGGNGAENPAADQPANPAGENAVLGENPDAQDGQAEEEEEDNEEEDDAGVEDAADANNGAQDDMNWNALEWDRAAEELTWERMLGLDGSLVFLEHVFWVVSLNTLFILVFAFCPYHIGHFSLVGLGFEEHVQASHFEGLITTIVGYILLAITLIICHALATLVKFHRSRRLLGVCYIVVKVSLLVVVEIGVFPLICGWWLDICSLEMFDATLKDRELSFQSAPGTTMFLHWLVGMVYVFYFASFILLLREVLRPGVLWFLRNLNDPDFNPVQEMIHLPIYRHLRRFILSVIVFGSIVLLMLWLPIRIIKSLLPNFLPYNVMLYSDAPVSELSLELLLLQVVLPALLEQGHTRQWLKGLVRAWTVTAGYLLDLHSYLLGDQEENENSANQQVNNNQPARNNNAVPAGEGLHAAHQAILQQGGPVGFQPYRRPLNFPLRIFLLIVFMCITLLIASLICLTLPVFAGRWLMSFWTGTAKIHELYTAACGLYVCWLTIRAVTVLVAWMPQGRRVIFQKVKEWSLMIMKTLIVAVLLAGVVPLLLGLLFELVIVAPLRVPLDQTPLFYPWQDWALGVLHAKIIAAITLMGPQWWLKTVIEQVYANGIRNIDLHYIIRKLAAPVISVLLLSLCVPYVIASGAVPLLGVTAEMQNLVHRRIYPFLLMVVVLMGILSFQVRQFKRLYEHIKNDKYLVGQRLVNYERKSGKQGPSTPPPVSSQE			restored	restored	specifically bound	very weakly bound	hardly bound	directly bound
